Reference: publication PMC10983743

Biological target: T1, Podoplanin (PDPN) on PDPN+ B16-F0 murine melanoma cells (mouse (endogenous in B16-F0)) (UniProt Q62011)
T1 sequence: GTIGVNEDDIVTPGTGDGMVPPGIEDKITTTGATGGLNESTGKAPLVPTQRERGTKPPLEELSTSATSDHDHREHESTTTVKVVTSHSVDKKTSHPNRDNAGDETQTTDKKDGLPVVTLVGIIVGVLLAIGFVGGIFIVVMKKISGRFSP

percent of tumour cells associated with platelets, counted under a fluorescence microscope (WT platelets mixed with PDPN+ B16-F0 cells, 1:200 tumour cells:platelets, 20 min at 37 °C): 65%
B1: C-type lectin-like receptor 2 (CLEC-2) on platelets of WT C57BL/6J mice (receptor)
chain: MQDEDGYITLNIKPRKQALSSAEPASSWWRVMALVLLISSMGLVVGLVALGIMSVTQQKYLLAEKENLSATLQQLAKKFCQELIRQSEIKTKSTFEHKCSPCATKWRYHGDSCYGFFRRNLTWEESKQYCTEQNATLVKTASQSTLDYIAERITSVRWIGLSRQNSKKDWMWEDSSVLRKNGINLSGNTEENMNCAYLHNGKIHPASCKERHYLICERNAGMTRVDQLL
